From PMC7599583 (Viruses, 2020) come the findings set out here.

Several values for one entry are separate records, joined by “and”; a condition that tells them apart may be missing. Equal entries are not always repeated.

Assay [1] concerns the target T1, Human adenovirus serotype 7 fiber knob, His-tagged (His-HAd7K), wild type (human adenovirus serotype 7 (HAdV7), …).
T1 chain: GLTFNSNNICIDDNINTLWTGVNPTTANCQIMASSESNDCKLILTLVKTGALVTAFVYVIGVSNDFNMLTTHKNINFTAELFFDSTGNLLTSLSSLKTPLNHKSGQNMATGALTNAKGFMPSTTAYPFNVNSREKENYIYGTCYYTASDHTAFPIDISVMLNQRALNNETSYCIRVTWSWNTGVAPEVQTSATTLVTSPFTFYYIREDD
The assay can be described thus: BLI.

The target of assay [2] is T1, Human adenovirus serotype 7 fiber knob, …. The assay can be described thus: BLI. (In general: BLI is a label-free optical method that tracks binding on a fibre tip over time.)
Assay [3] deals with T2, Human adenovirus serotype 7 fiber knob, His-tagged (His-HAd7K), wild type (human adenovirus serotype 7 (HAdV7), …).
T2 chain: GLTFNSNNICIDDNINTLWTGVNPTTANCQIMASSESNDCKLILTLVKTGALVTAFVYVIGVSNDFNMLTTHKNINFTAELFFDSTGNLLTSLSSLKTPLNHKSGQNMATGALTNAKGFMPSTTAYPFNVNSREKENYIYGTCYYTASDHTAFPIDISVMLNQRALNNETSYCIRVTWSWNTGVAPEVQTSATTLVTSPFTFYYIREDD
Put plainly: cryo-EM structure. The conditions noted are these: both partners purified.

The target of assay [4] is T3, Human adenovirus serotype 7 fiber knob, His-tagged (His-HAd7K), wild type (human adenovirus serotype 7 (HAdV7), …, N-glycosylated (sugars almost 15% of the total mass by mass spectrometry) / Wild-type trimeric knob; N-terminal His tag and GSHM omitted. The printed limits D87-P273 do not fit the paper's own residue).
T3 chain: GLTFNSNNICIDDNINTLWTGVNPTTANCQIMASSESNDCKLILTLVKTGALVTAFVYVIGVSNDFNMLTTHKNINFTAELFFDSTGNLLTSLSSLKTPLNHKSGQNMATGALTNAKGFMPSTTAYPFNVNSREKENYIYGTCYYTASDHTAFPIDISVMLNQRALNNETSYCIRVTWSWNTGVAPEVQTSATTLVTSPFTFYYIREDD
Put plainly: cryo-EM structure. Conditions: both partners purified.

B1: Desmoglein-2 (DSG2), non His-tagged, Leinco Technologies (receptor)
chain: AWITAPVALREGEDLSKKNPIAKIHSDLAEERGLKITYKYTGKGITEPPFGIFVFNKDTGELNVTSILDREETPFFLLTGYALDARGNNVEKPLELRIKVLDINDNEPVFTQDVFVGSVEELSAAHTLVMKINATDADEPNTLNSKISYRIVSLEPAYPPVFYLNKDTGEIYTTSVTLDREEHSSYTLTVEARDGNGEVTDKPVKQAQVQIRILDVNDNIPVVENKVLEGMVEENQVNVEVTRIKVFDADEIGSDNWLANFTFASGNEGGYFHIETDAQTNEGIVTLIKEVDYEEMKNLDFSVIVANKAAFHKSIRSKYKPTPIPIKVKVKNVKEGIHFKSSVISIYVSESMDRSSKGQIIGNFQAFDEDTGLPAHARYVKLEDRDNWISVDSVTSEIKLAKLPDFESRYVQNGTYTVKIVAISEDYPRKTITGTVLINVEDINDNCPTLIEPVQTICHDAEYVNVTAEDLDGHPNSGPFSFSVIDKPPGMAEKWKIARQESTSVLLQQSEKKLGRSEIQFLISDNQGFSCPEKQVLTLTVCECLHGSGCREAQHDSYVG
modifications: Wild-type trimeric knob; N-terminal His tag and GSHM omitted. The printed limits D87-P273 do not fit the paper's own residue numbering (V300 and P302 are present in the knob), so the deposited knob entity (same as 3EXW) with the last shaft repeat is used. Entity position = fiber number - 112 (D265=153, F269=157, N192=80), an offset inferred by assuming a 325-residue fiber and comparing with HAd3K.
What is called koff is a measure of how fast the partners let go of each other. For orientation: Kd means the constant that tells how readily two partners part at equilibrium. Lower therefore signals a tighter complex. Turning to B1, in assay [1], the koff came to 0.000112 s⁻¹. In assay [2], this molecule returned a Kd of 4.04 nM.

B2: Human adenovirus serotype 7 fiber knob, His-tagged (His-HAd7K), wild type (domain or fragment)
chain: GLTFNSNNICIDDNINTLWTGVNPTTANCQIMASSESNDCKLILTLVKTGALVTAFVYVIGVSNDFNMLTTHKNINFTAELFFDSTGNLLTSLSSLKTPLNHKSGQNMATGALTNAKGFMPSTTAYPFNVNSREKENYIYGTCYYTASDHTAFPIDISVMLNQRALNNETSYCIRVTWSWNTGVAPEVQTSATTLVTSPFTFYYIREDD
modifications: Wild-type trimeric knob; N-terminal His tag and GSHM omitted. The printed limits D87-P273 do not fit the paper's own residue numbering (V300 and P302 are present in the knob), so the deposited knob …
In general, stoichiometry N refers to the number of molecules, sites or subunits per partner or assembly. For B2, the “stoichiometry N” value in assay [3] was determined as 3.

B3: EC2-EC3 domains of desmoglein-2 (EC23 module), glycosylated (domain or fragment, UniProt Q14126 149-386, looked up)
chain: VLDINDNEPVFTQDVFVGSVEELSAAHTLVMKINATDADEPNTLNSKISYRIVSLEPAYPPVFYLNKDTGEIYTTSVTLDREEHSSYTLTVEARDGNGEVTDKPVKQAQVQIRILDVNDNIPVVENKVLEGMVEENQVNVEVTRIKVFDADEIGSDNWLANFTFASGNEGGYFHIETDAQTNEGIVTLIKEVDYEEMKNLDFSVIVANKAAFHKSIRSKYKPTPIPIKVKVKNVKEGI
notes: also called EC2-EC3 module; EC23 module of DSG2
Regarding B3, the “stoichiometry N” value in assay [4] was 2 EC23 modules per HAd7K trimer and 3 EC23 modules per HAd7K trimer.
